From patent US20060134709A1
Where two headings read alike, the source gives them in different places. One block for each substance: values may come before it.

Columns and labels:
[1] = molecular target: FcγRIIB-Fc fusion protein (human) (UniProt P31994); test: BIAcore
[2] = molecular target: soluble monomeric FcγRIIIA-linker-AVITAG (human) (UniProt P08637); test: ELISA
FcγRIIIA 158V (human) = FcγRIIIA 158V (human) (UniProt P08637); test: BIAcore
[3] = molecular target: soluble monomeric FcγRIIIA-linker-AVITAG (human) (UniProt P08637); test: BIAcore
soluble FcγRIIB (human) = soluble FcγRIIB (human) (UniProt P31994); test: ELISA
[4] = molecular target: FcγRIIB-Fc fusion protein (human) (UniProt P31994); test: ELISA of FcγRIIB-Fc binding; OD listed beside the sensorgrams
[5] = molecular target: FcγRIIB-Fc fusion protein (human) (UniProt P31994); test: ELISA
[6] = molecular target: FcγRIIB-Fc fusion protein (human) (UniProt P31994); test: BIAcore; remark: listed apart in the source
[7] = molecular target: soluble monomeric FcγRIIIA-linker-AVITAG (human) (UniProt P08637); test: BIAcore: ch4-4-20 captured on BSA-FITC, FcγRIIIA at 200 nM and 800 nM, separate fits, average of the two concentrations

- Koff WT/Mut [1]: 0.61
Substance: ch4-4-20 A330V (antibody)

- fold increase vs wt (soluble FcγRIIB (human)): 14 x
- fold vs wt (soluble FcγRIIB (human)): 14 X
- fold increase vs wt [2]: 1.5 x
- fold vs wt [2]: 1.5 X
- Kd [1]: 46 nM
- koff [1]: 0.06 s⁻¹
- Kd [3]: 72 nM
- koff [3]: 0.117 s⁻¹
Substance: ch4-4-20 G316D, A378V, D399E (antibody)

- Koff WT/Mut [1]: 1.03
- Kd ([1]; Fc variant MGFc 37): 100 nM
- koff ([1]; Fc variant MGFc 37): 0.091 s⁻¹
- Kd ([1]; Fc variant MGFc 40): 110 nM
- koff ([1]; Fc variant MGFc 40): 0.09 s⁻¹
- Koff WT/Mut (FcγRIIIA 158V (human)): 0.977
Substance: ch4-4-20 K248M (antibody)

- ELISA, OD [5]: 0.35 OD
- ELISA, OD [2]: 0.6 OD
- Kd [3]: 264 nM
- koff [3]: 0.175 s⁻¹
- kon [3]: 667000 M⁻¹ s⁻¹
- Kd [6]: 66.5 nM
- koff [6]: 0.06 s⁻¹
- koff [7]: 0.173 s⁻¹
Substance: ch4-4-20 Mut 6 (S219V) (antibody)

- fold increase vs wt (soluble FcγRIIB (human)): 9 x
- fold vs wt (soluble FcγRIIB (human)): 9 X
- fold increase vs wt [2]: 1 x
- fold vs wt [2]: 1 X
Substance: ch4-4-20 N315I, V379M, T394M (antibody)

- fold increase vs wt (soluble FcγRIIB (human)): 5.2 x
- fold increase vs wt [2]: 2.2 x
Substance: ch4-4-20 N384K, P396L (antibody)

- fold increase vs wt (soluble FcγRIIB (human)): 4.5 x
- fold increase vs wt [2]: 2 x
Substance: ch4-4-20 P217S, A378V, S408R (antibody)

- fold increase vs wt (soluble FcγRIIB (human)): 7 x
- fold increase vs wt [2]: 2 x
Substance: ch4-4-20 P217S, V305I, I309L, N390H, P396L (antibody)

- fold increase vs wt (soluble FcγRIIB (human)): 4 x
- fold increase vs wt [2]: 1.5 x
Substance: ch4-4-20 P227S, P396L (antibody)

- fold increase vs wt (soluble FcγRIIB (human)): 1.5 x
- fold increase vs wt [2]: 1.75 x
Substance: ch4-4-20 P244H, L358M, V379M, N384K, V397M (antibody)

- fold increase vs wt (soluble FcγRIIB (human)): 4 x
- fold increase vs wt [2]: 2.5 x
Substance: ch4-4-20 P244H, P396L (antibody)

More lines, now with the values behind:

Substance: ch4-4-20 A330V, G427M (antibody)
- Koff WT/Mut [1]: 0.62

Substance: ch4-4-20 E233G (antibody)
- Koff WT/Mut [1]: 0.54

Substance: ch4-4-20 E293V, Q295E, A327T (antibody)
- fold increase vs wt [2]: 0.4 x
- fold vs wt [2]: 1.4 X
- Kd [1]: 86 nM
- Koff WT/Mut [1]: 1.3
- koff [1]: 0.074 s⁻¹
- Koff WT/Mut (FcγRIIIA 158V (human)): 0.86
- Kd [3]: 195 nM
- koff [3]: 0.198 s⁻¹

Substance: ch4-4-20 F243I, V379L (antibody)
- Kd [1]: 120 nM
- koff [1]: 0.113 s⁻¹
- Kd [3]: 99.7 nM
- koff [3]: 0.105 s⁻¹

Substance: ch4-4-20 F243I, V379L, G420V (antibody)
- Kd [1]: 93.4 nM
- koff [1]: 0.101 s⁻¹

Substance: ch4-4-20 H268N, P396L (antibody)
- fold increase vs wt (soluble FcγRIIB (human)): 4.5 x
- fold vs wt (soluble FcγRIIB (human)): 4.5 X
- fold increase vs wt [2]: 2.2 x
- fold vs wt [2]: 2.2 X
- Kd [1]: 46.6 nM
- Koff WT/Mut [1]: 1.04
- koff [1]: 0.036 s⁻¹
- Koff WT/Mut (FcγRIIIA 158V (human)): 0.92
- Kd [3]: 178 nM
- koff [3]: 0.159 s⁻¹

Substance: ch4-4-20 K261N, K210M, P396L (antibody)
- fold increase vs wt (soluble FcγRIIB (human)): 4.2 x
- fold increase vs wt [2]: 2 x
- Koff WT/Mut [1]: 0.85
- Koff WT/Mut (FcγRIIIA 158V (human)): 1.29

Substance: ch4-4-20 K288M, K334E (antibody)
- ELISA, OD [2]: 1.1 OD
- fold increase vs wt [2]: 3 x
- fold vs wt [2]: 3 X
- Kd [1]: 95.6 nM
- koff [1]: 0.089 s⁻¹
- Kd [3]: 75.4 nM
- koff [3]: 0.1 s⁻¹
- kon [3]: 1.37e+06 M⁻¹ s⁻¹
- ELISA, OD [4]: 0.13 OD

Substance: ch4-4-20 K288N, A330S, P396L (antibody)
- ELISA, OD [5]: 1.2 OD
- ELISA, OD [2]: 1 OD
- Kd [1]: 33.4 nM
- Kd [6]: 41.3 nM

Substance: ch4-4-20 K288R, T307A, K344E, P396L (antibody)
- fold increase vs wt (soluble FcγRIIB (human)): 2.3 x
- fold increase vs wt [2]: 4.1 x
- Koff WT/Mut [1]: 0.89
- Koff WT/Mut (FcγRIIIA 158V (human)): 1.27

Substance: ch4-4-20 K326E (antibody)
- ELISA, OD [5]: 1.25 OD
- fold increase vs wt (soluble FcγRIIB (human)): 3.5 x
- ELISA, OD [2]: 1 OD
- fold increase vs wt [2]: 2 x
- Kd [3]: 92 nM
- koff [3]: 0.112 s⁻¹
- kon [3]: 1.23e+06 M⁻¹ s⁻¹
- Kd [6]: 51.7 nM
- koff [6]: 0.043 s⁻¹

Substance: ch4-4-20 K334E, T359N, T366S (antibody)
- fold increase vs wt [2]: 1.5 x
- fold vs wt [2]: 1.5 X
- Kd [1]: 72 nM
- koff [1]: 0.11 s⁻¹
- Kd [3]: 55.2 nM
- koff [3]: 0.128 s⁻¹

Substance: ch4-4-20 K370N, S440N (antibody)
- fold increase vs wt (soluble FcγRIIB (human)): 3.5 x
- fold increase vs wt [2]: 1 x

Substance: ch4-4-20 K392T, P396L (antibody)
- fold increase vs wt (soluble FcγRIIB (human)): 2.5 x
- fold vs wt (soluble FcγRIIB (human)): 2.5 X
- fold increase vs wt [2]: 4.5 x
- fold vs wt [2]: 4.5 X
- Kd [1]: 50 nM
- Koff WT/Mut [1]: 2.3
- koff [1]: 0.041 s⁻¹
- Koff WT/Mut (FcγRIIIA 158V (human)): 1.64
- Kd [3]: 84 nM
- koff [3]: 0.104 s⁻¹

Substance: ch4-4-20 L242F, P396L (antibody)
- fold increase vs wt (soluble FcγRIIB (human)): 4.1 x
- fold increase vs wt [2]: 2.5 x

Substance: ch4-4-20 L358P, P396L (antibody)
- fold increase vs wt (soluble FcγRIIB (human)): 4.2 x
- fold increase vs wt [2]: 1.9 x

Substance: ch4-4-20 L410H, P396L (antibody)
- fold increase vs wt (soluble FcγRIIB (human)): 4.5 x
- fold increase vs wt [2]: 1.7 x

Substance: ch4-4-20 N276Y (antibody)
- Koff WT/Mut [1]: 0.64

Substance: ch4-4-20 P217A, T359A, P396L (antibody)
- fold increase vs wt (soluble FcγRIIB (human)): 4.8 x
- fold increase vs wt [2]: 1.5 x

Substance: ch4-4-20 P217S, P396L (antibody)
- fold increase vs wt (soluble FcγRIIB (human)): 4.5 x
- fold increase vs wt [2]: 1.6 x
- Koff WT/Mut [1]: 0.95
- Koff WT/Mut (FcγRIIIA 158V (human)): 1.17

Substance: ch4-4-20 P227S, K290E (antibody)
- fold increase vs wt (soluble FcγRIIB (human)): 0.5 x
- fold increase vs wt [2]: 1 x

Substance: ch4-4-20 P247L (antibody)
- fold increase vs wt (soluble FcγRIIB (human)): 4 x
- fold increase vs wt [2]: 0.5 x

Substance: ch4-4-20 P247L, A330T, S440G (antibody)
- fold decrease vs wt (soluble FcγRIIB (human)): 0.25 x
- fold increase vs wt [2]: 0.75 x

Substance: ch4-4-20 P247L, E389G (antibody)
- fold increase vs wt (soluble FcγRIIB (human)): 9 x
- fold increase vs wt [2]: 1.5 x
